According to patent publication US12589171B2, “177-Lu labeled peptide for site-specific uPAR-targeting” (priority 2012, dated 2026):
Where two headings read alike, the source gives them in different places. Blank lines part the entries; values can stand above or below the compound they belong to. Residues, ends and D or L forms follow the SMILES beside them.

Assays:
[1] = Biodistribution in Nude mice bearing HT-29 tumor xenograft (gamma-counter); format: in vivo, NMRI nude mice; settings: female, NMRI nude, mouse, iv, total radioactivity
Method: (§1) Mice were sacrificed at 0.5, 1.0, 2.0, 4.0 and 24.0 h after injection, and a panel of organs, including blood drawn from the heart, was collected, weighed, and analyzed for radioactive content. Mean percent injected dose per gram (% ID/g)±SEM from three mice at each point is presented. A. Chemical structure of ^177Lu-DOTA-AE105. B(top) Biodistribution of ^177Lu-DOTA-AE105 in selected organs/tissues between 0.5 and 24.0 h. B (bottom). […] HT-29 colorectal cancer cells were obtained from the American Type Culture Collection (Manassas, VA, USA) and culture media was obtained from Invitrogen Co. (Carlsbad, CA, USA). The cell line was cultured in Mc.Coy's standard medium supplemented with 10% (v/v) fetal bovine serum and 1% (v/v) penicillin/Streptomycin at 37° C. and 5% CO2. Xenografts of human HT-29 colorectal cancer cells was established by injection of 200 μl cells (1×10^8 cells/ml) suspended in 100 μl Matrigel (BD Biosciences, San Jose, CA, USA), subcutaneously in the left and right flank of female NMRI nude mice obtained from Taconic, under anesthesia by Hypnorm/doricum (Study day −3). All animal experiments were performed under a protocol approved by the Animal Research Committee of the Danish Ministry of Justice. Biodistribution study was performed as previously described. In brief, Nude mice bearing HT-29 xenografts were injected in the tail-vein with 2-3 MBq of ^177Lu-DOTA-AE105 or ^177Lu-DOTA-AE105mut. All mice were euthanized after 0.5, 1, 2, 4 and 24 hr post tracer injection. Blood, tumor and major organs were collected (wet-weight) and the radioactivity was measured using a γ-counter from Perkin Elmer, MA, USA (N=4 mice/group).

[2] = Toxicity in HT-29 therapy study (body weight, kidney H&E, deaths); format: in vivo, NMRI nude mice
Excerpt: Results are presented as the mean±SEM, n=6 animals/group. B, H&E staining of kidney sections representing kidney epithelia (top) and glomerulus (Bottom) from each treatment group. […] One pair of kidneys from one animal/group was stained. Scale bar=25 μm, 40× zoom.
Three days after tumor cell inoculation (study day 0), 18 nude mice bearing the human colorectal carcinoma xenograft HT-29 in each flank were randomly divided into three groups consisting of 6 animals each. All animals in each group were first baseline PET/CT scanned with ^18F-FLT (day 0) before being dosed with 20 MBq of either ^177Lu-DOTA-AE105, ^177Lu-DOTA-AE105mut or vehicle. Subsequently, PET/CT scans of all mice in each group were repeated with ^18F-FLT on study day 1, 3 and 6. Second treatment dose (20 MBq) was administrated on day 7, followed by CT-scan day 8, 10 and 14 to measure tumor volumes using manual ROI drawing on the reconstructed images. On day 14, all animals were euthanized and tumors and kidneys were collected and kept for further analysis at −80° C.
uPAR ELISA on resected HT-29 tumors was done as described previously in detail. All results were performed as duplicate measurements. Expression of uPAR in formalin fixed and paraffin embedded tumor tissue was evaluated by immunohistochemical staining (FIG. 7) as previously published. A general histopathology examination was performed on H&E stained kidney tissue (one pair of kidneys from one animal from each treatment group) and performed by a trained pathologist (ODL).

[3] = test system: HT-29 tumor xenograft; assay: Biodistribution in Nude mice bearing HT-29 tumor xenograft (gamma-counter); format: in vivo, NMRI nude mice; settings: mouse, in vivo
Method: as §1

[4] = design: species or system NMRI nude mice; settings: mouse, in vivo
Excerpt: The organ uptake values, were time integrated to obtain the residence time per gram tissue for dosimetry calculations. Integration between time 0 and 24 hr was made by the trapezoid method. All time points were used to fit to a double exponential function (2-compartment model), which was used to estimate the residence time from 24 hr to infinity. The extrapolated area was in all organs/tissues <17% of the total calculated area, except kidneys (36.1%) and spleen (30.0%). The radioactive decay of ^177Lu produces mainly low energy […]. The S value for a 1 g sphere (0.0233 mGy/MBq s) was used to calculate the organ doses by multiplying it to the organ residence values as previously described. Based on the biodistribution data of ^177Lu-DOTA-AE105, estimates of the dosimetry were calculated (Table 1). […] However, the uPAR-positive fraction of the HT-29 tumor have previously been found only to be located in periphery of the tumor[25]. […] With this is mind and with the knowledge of the small penetration range of ^177Lu beta radiation (<2 mm), the present inventors calculated an estimate of local uPAR-positive tumor fraction dosimetry of approximate 58 mGy/MBq, thus resulting in the highest exposure for all organs/tissue investigated.

[5] = molecular target: T1, human uPAR (Homo sapiens, UniProt Q03405); assay: Ligand:uPAR interaction in vitro (binding affinity); settings: binding affinity towards human uPAR
T1 construct: made in house
Excerpt: In table 2, the amino acids sequences of each peptid conjugate with the corresponding binding affinity towards human uPAR are shown. Residues in bold is important for the interaction with uPAR. A substitution of two of these important amino acids (Phe^3 and Trp^8) with Glu, results in a complete loss of affinity towards uPAR. […] Importantly, no reduction in affinity is caused by conjugation of DOTA chelator in the N-terminal, illustrated with identical IC50-value between the un-conjugated peptide AE105 and the conjugated form DOTA-AE105.

T1 sequence (Q03405 23-305): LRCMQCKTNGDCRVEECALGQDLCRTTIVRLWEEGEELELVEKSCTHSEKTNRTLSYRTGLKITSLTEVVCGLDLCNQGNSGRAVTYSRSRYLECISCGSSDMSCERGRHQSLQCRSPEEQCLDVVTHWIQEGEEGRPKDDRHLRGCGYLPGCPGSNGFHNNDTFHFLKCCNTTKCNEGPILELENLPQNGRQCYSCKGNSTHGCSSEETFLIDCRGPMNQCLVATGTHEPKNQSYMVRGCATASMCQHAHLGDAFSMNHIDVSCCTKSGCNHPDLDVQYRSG

SMILES: CC(C)C[C@H](NC(=O)[C@H](Cc1ccc(O)cc1)NC(=O)[C@@H](CCCNC(=N)N)NC(=O)[C@@H](CO)NC(=O)[C@H](CCC(=O)O)NC(=O)[C@H](CC1CCCCC1)NC(=O)[C@H](CC(=O)O)NC(=O)CN1CCN(CC(=O)O)CCN(CC(=O)O)CCN(CC(=O)O)CC1)C(=O)N[C@@H](CCC(=O)O)C(=O)N[C@@H](CO)C(N)=O [^177Lu-DOTA-AE105mut, metal not drawn, reference compound] (HELM PEPTIDE1{[O=C(O)CN1CCN(CC(=O)O)CCN(CC(=O)[*:2])CCN(CC(=O)O)CC1].D.[Cha].E.[dS].[dR].Y.L.E.S.[am]}$$$$V2.0)
tissue uptake at 0.5 h ([1]; in vivo, % ID/g Blood): 0.959 %ID/g
tissue uptake at 0.5 h ([1]; in vivo, % ID/g Bone): 0.39 %ID/g
tissue uptake at 0.5 h ([1]; in vivo, % ID/g Brain): 0.081 %ID/g
tissue uptake at 0.5 h ([1]; in vivo, % ID/g Heart): 0.278 %ID/g
tissue uptake at 0.5 h ([1]; in vivo, % ID/g Intestine): 0.2 %ID/g
tissue uptake at 0.5 h ([1]; in vivo, % ID/g Kidney): 3.01 %ID/g
tissue uptake at 0.5 h ([1]; in vivo, % ID/g Liver): 0.228 %ID/g
tissue uptake at 0.5 h ([1]; in vivo, % ID/g Muscle): 0.235 %ID/g
tissue uptake at 0.5 h ([1]; in vivo, % ID/g Spleen): 0.163 %ID/g
tissue uptake at 0.5 h ([1]; in vivo, % ID/g Tumor): 0.708 %ID/g
animal body weight between treatment groups ([2]; mouse, in vivo): No significant differences in the mean body weights
kidney histopathology (H&E staining) ([2]; mouse, in vivo): no gross macroscopic morphological changes

SMILES: CC(C)C[C@H](NC(=O)[C@H](Cc1ccc(O)cc1)NC(=O)C(CCCNC(=N)N)NC(=O)C(CO)NC(=O)C(Cc1ccccc1)NC(=O)[C@H](CC1CCCCC1)NC(=O)[C@H](CC(=O)O)NC(=O)CN1CCN(CC(=O)O)CCN(CC(=O)O)CCN(CC(=O)O)CC1)C(=O)N[C@@H](Cc1c[nH]c2ccccc12)C(=O)N[C@@H](CO)C(N)=O (stereo partly shown) [^177Lu-DOTA-AE105, metal not drawn]
tissue to tissue ratio at 1 h ([1]; in vivo): 12
tissue to tissue ratio at 24 h ([1]; in vivo): 3.3
tissue uptake at 0.5 h ([1]; in vivo, % ID/g Blood): 2.71 %ID/g
tissue uptake at 1 h ([1]; in vivo, % ID/g Blood): 0.282 %ID/g
tissue uptake at 2 h ([1]; in vivo, % ID/g Blood): 0.173 %ID/g
tissue uptake at 4 h ([1]; in vivo, % ID/g Blood): 0.043 %ID/g
tissue uptake at 24 h ([1]; in vivo, % ID/g Blood): 0.005 %ID/g
tissue uptake at 0.5 h ([1]; in vivo, % ID/g Bone): 0.696 %ID/g
tissue uptake at 1 h ([1]; in vivo, % ID/g Bone): 0.699 %ID/g
tissue uptake at 2 h ([1]; in vivo, % ID/g Bone): 0.267 %ID/g
tissue uptake at 4 h ([1]; in vivo, % ID/g Bone): 0.258 %ID/g
tissue uptake at 24 h ([1]; in vivo, % ID/g Bone): 0.32 %ID/g
tissue uptake at 0.5 h ([1]; in vivo, % ID/g Brain): 0.075 %ID/g
tissue uptake at 1 h ([1]; in vivo, % ID/g Brain): 0.038 %ID/g
tissue uptake at 2 h ([1]; in vivo, % ID/g Brain): 0.026 %ID/g
tissue uptake at 4 h ([1]; in vivo, % ID/g Brain): 0.019 %ID/g
tissue uptake at 24 h ([1]; in vivo, % ID/g Brain): 0.005 %ID/g
tissue uptake at 0.5 h ([1]; in vivo, % ID/g Heart): 0.757 %ID/g
tissue uptake at 1 h ([1]; in vivo, % ID/g Heart): 0.143 %ID/g
tissue uptake at 2 h ([1]; in vivo, % ID/g Heart): 0.082 %ID/g
tissue uptake at 4 h ([1]; in vivo, % ID/g Heart): 0.05 %ID/g
tissue uptake at 24 h ([1]; in vivo, % ID/g Heart): 0.017 %ID/g
tissue uptake at 0.5 h ([1]; in vivo, % ID/g Intestine): 0.579 %ID/g
tissue uptake at 1 h ([1]; in vivo, % ID/g Intestine): 0.196 %ID/g
tissue uptake at 2 h ([1]; in vivo, % ID/g Intestine): 0.271 %ID/g
tissue uptake at 4 h ([1]; in vivo, % ID/g Intestine): 0.289 %ID/g
tissue uptake at 24 h ([1]; in vivo, % ID/g Intestine): 0.078 %ID/g
tissue uptake at 0.5 h ([1]; in vivo, % ID/g Liver): 0.686 %ID/g
tissue uptake at 1 h ([1]; in vivo, % ID/g Liver): 0.249 %ID/g
tissue uptake at 2 h ([1]; in vivo, % ID/g Liver): 0.243 %ID/g
tissue uptake at 4 h ([1]; in vivo, % ID/g Liver): 0.284 %ID/g
tissue uptake at 24 h ([1]; in vivo, % ID/g Liver): 0.149 %ID/g
tissue uptake at 0.5 h ([1]; in vivo, % ID/g Muscle): 0.58 %ID/g
tissue uptake at 1 h ([1]; in vivo, % ID/g Muscle): 0.084 %ID/g
tissue uptake at 2 h ([1]; in vivo, % ID/g Muscle): 0.047 %ID/g
tissue uptake at 4 h ([1]; in vivo, % ID/g Muscle): 0.053 %ID/g
tissue uptake at 24 h ([1]; in vivo, % ID/g Muscle): 0.01 %ID/g
tissue uptake at 0.5 h ([1]; in vivo, % ID/g Spleen): 0.924 %ID/g
tissue uptake at 1 h ([1]; in vivo, % ID/g Spleen): 0.262 %ID/g
tissue uptake at 2 h ([1]; in vivo, % ID/g Spleen): 0.222 %ID/g
tissue uptake at 4 h ([1]; in vivo, % ID/g Spleen): 0.303 %ID/g
tissue uptake at 24 h ([1]; in vivo, % ID/g Spleen): 0.109 %ID/g
tissue uptake at 0.5 h ([1]; in vivo, % ID/g Tumor): 1.78 %ID/g
tissue uptake at 1 h ([1]; in vivo, % ID/g Tumor): 0.614 %ID/g
tissue uptake at 2 h ([1]; in vivo, % ID/g Tumor): 0.17 %ID/g
tissue uptake at 4 h ([1]; in vivo, % ID/g Tumor): 0.17 ± 0.02 %ID/g
tissue uptake at 24 h ([1]; in vivo, % ID/g Tumor): 0.057 %ID/g
tissue uptake at 0.5 h ([1]; kidney, Kidney, 0.5 h after injection, read-out: % ID/g Kidney): 6.17 %ID/g
tissue uptake at 1 h ([1]; kidney, Kidney, 1.0 h after injection, read-out: % ID/g Kidney): 2.44 %ID/g
tissue uptake at 2 h ([1]; kidney, Kidney, 2.0 h after injection, read-out: % ID/g Kidney): 1.91 %ID/g
tissue uptake at 4 h ([1]; kidney, Kidney, 4.0 h after injection, read-out: % ID/g Kidney): 1.67 %ID/g
tissue uptake at 24 h ([1]; kidney, Kidney, 24 h after injection, read-out: % ID/g Kidney): 0.839 %ID/g
% ID/g Tumor ([3]; female, NMRI nude, iv, 4 h): 0.176 % ID/g
clearance from blood and organs [3]: fast clearance rate from blood and all organs investigated
Dosimetry Blood [4]: 4.9 mGy/MBq
Dosimetry Bone [4]: 1.8 mGy/MBq
Dosimetry Brain [4]: 0.4 mGy/MBq
Dosimetry Heart [4]: 2.0 mGy/MBq
Dosimetry Intestine [4]: 2.9 mGy/MBq
Dosimetry Kidney [4]: 52.9 mGy/MBq
Dosimetry Liver [4]: 2.4 mGy/MBq
Dosimetry Muscle [4]: 1.2 mGy/MBq
Dosimetry Spleen [4]: 5.5 mGy/MBq
Dosimetry Tumor [4]: 5.8 mGy/MBq
premature deaths ([2]; HT-29 study): No animals died prematurely

SMILES: CC(C)C[C@H](NC(=O)[C@H](Cc1ccc(O)cc1)NC(=O)[C@@H](CCCNC(=N)N)NC(=O)[C@@H](CO)NC(=O)[C@H](CCC(=O)O)NC(=O)[C@H](CC1CCCCC1)NC(=O)[C@H](CC(=O)O)NC(=O)CN1CCN(CC(=O)O)CCN(CC(=O)O)CCN(CC(=O)O)CC1)C(=O)N[C@@H](CCC(=O)O)C(=O)N[C@@H](CO)C(N)=O [DOTA-AE105mut, DOTA-Asp-Cha-Glu-(D)Ser-(D)Arg-Tyr-Leu-Glu-Ser-CONH2] (HELM PEPTIDE1{[O=C(O)CN1CCN(CC(=O)O)CCN(CC(=O)[*:2])CCN(CC(=O)O)CC1].D.[Cha].E.[dS].[dR].Y.L.E.S.[am]}$$$$V2.0)
IC50 [5]: > 10 nM

IC50 [5]: 6.7 nM
SMILES: CC(C)C[C@H](NC(=O)[C@H](Cc1ccc(O)cc1)NC(=O)[C@@H](CCCNC(=N)N)NC(=O)[C@@H](CO)NC(=O)[C@H](Cc1ccccc1)NC(=O)[C@H](CC1CCCCC1)NC(=O)[C@@H](N)CC(=O)O)C(=O)N[C@@H](Cc1c[nH]c2ccccc12)C(=O)N[C@@H](CO)C(N)=O [AE105, Asp^1-Cha^2-Phe^3-ser^4-arg^5-Tyr^6-Leu^7-Trp^8-Ser^9]
